Data as given in the nanobody polyreactivity screen of Harvey et al. (2022).

Assay: yeast display, Sf9 membrane polyspecificity reagent, FACS + sequencing; frameworks hold sequencing errors
In short: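 Galactose-induced (36–48 hours) yeast carrying a synthetic nanobody display library were exposed to 10% biotinylated, detergent-solubilized Sf9 membrane reagent at 4 °C for 1 hour. FACS followed streptavidin microbead enrichment, using low and high (top ~1%) gates for expression (anti-HA) and reagent binding (streptavidin). Colony PCR, MiSeq 2 × 250 sequencing and CDR-length filtering followed. Labels for polyreactivity reflect the gate of origin.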

Row | Sequence | polyreactivity (PSR sort gate)
1 | QVQLVESGGGLVQAGGRHRLTCAASGRTVGRYAMGWYRQAPGKEREFVAAISNRVGRTYYADSVKGRFTISRDNAKNTVYLQMNSLKPEDTAVYYCAADTAHVNVNYWGQGTQVTVSS | high polyreactivity
2 | QVQLVESGGGLVQAGGRLRFSCAASGNTFPHNTMGWYRKAPGKERELVSTNYADSVKGRFTISRDNAKNSVYLQMNSLKPEDTAVYYCHADGTFEYDYWGQGTQVTVSS | low polyreactivity
3 | QVQLVESGGGLVQAGGRLRISCAASGSIFKGYARGWSRQAPGKERELVAAISGSGTSTYYADSVKGRFTISRDNAKNTVYLQMNSLKPEDTAVYYCATGWYTVFSSRMYSWGQGTQVTVSS | high polyreactivity
4 | QVQLVESGGGLVQAGGRLRISCAASGSIFKGYARGWSRQGPGKERELVAAISGSGTSTYYADSVKGRFTISRDNAKNTVYLQMNSLTPEDTAVYYCATGWYTVFSRRMYSWGQGTQVTVSS | high polyreactivity
5 | QVQLVESGGGLVQAGGRLRISCAASGSTFYFNAMGWYRQAPGKERELVAAITRGGSTYADSVKGRFTISRDNAKYTVYLQMNSMKPEDTAVYYCNAVYGVYDFIYWGQGTQVTVSS | low polyreactivity
6 | QVQLVESGGGLVQAGGRLRISCAASGTIFAYALGWYRPAPGKERELVAGISRRGGSTYYADSVKGRFTISRDNAKKTVYLQMKSLKPEDTAVYYCAADYYTLYPVYIKRYGYWGQGTQVTVSA | high polyreactivity
7 | QVQLVESGGGLVQAGGRLRLICAASGSTFRANIMRWSRQAPGKERELVAAITSGGGSTYYADSVKGRFTISRDNAKNTVYLQMNSLKPEDTAVYYCAARIYHDIDTRSYYWGQGTQVTVSS | high polyreactivity
8 | QVQLVESGGGLVQAGGRLRLICAAYGSTFSLYALGWYRQAPGKERELVADINSGGGTYYADSVKGRFTISRDNAKNTVYLQMNSVKPEDTAVYYCNAPVARGEASYYWGHGTQVTVSS | high polyreactivity
9 | QVQLVESGGGLVQAGGRLRLSCAASASTIVGNAMGWYRQAPGKERELVATISNSGGRTYYADSVKGRFTISRDNSKYTVYLQMNSLKPEDTAVYYCNADIYPHDGYPWQGDYDYWGQGTQVTVSS | low polyreactivity
10 | QVQLVESGGGLVQAGGRLRLSCAASGFIIARNAMGWYRQAPGKERELVAASSASGGRTYYADSVKGRFTISRDNAKNTVYLQMNSLKPEDTAVYYCAARRDGRSGSFNYWGQGTQVTVSS | high polyreactivity
11 | QVQLVESGGGLVQAGGRLRLSCAASGFNFHYYAMGWYRQAPGKERELVAAISWSSGRTYYADSVKGRFTISRDNEKNTVYLQMNSLKPEDTAVYYCAASSYNRGDYWGQGTQVTVSS | high polyreactivity
12 | QVQLVESGGGLVQAGGRLRLSCAASGFTFIRSAMGWYRQAPGKERELVAAISWSDDTTYYADSVKGRFTISRDNAKNTVYLQMNSLKPEDTAVYYCAAEVWYSYAEYDYWGQGTQVTVSS | high polyreactivity
13 | QVQLVESGGGLVQAGGRLRLSCAASGFTFKRNAMGWYRQAPGKERELVAAITWSGGSTYYADSVKGRFTISRDNAKNTVYLQMNSLKPEDTAVYYCAALYRSRYYAGDYLGQGTQVTVSS | high polyreactivity
14 | QVQLVESGGGLVQAGGRLRLSCAASGFTFLDYAMGWYRQAPGKERELVASISSSGGSTRFADSVKGRFTISRDNAKNTVYLQMNSLKPEDTAVYYCNADVDLFGAAYGYDYWGQGTQVTVSS | low polyreactivity
15 | QVQLVESGGGLVQAGGRLRLSCAASGFTFNRNAMGWYRQAPGKERELVAAISDSGDNTYYADSVKGRFTISRDNAKNTVYLQMNSLKPEDTAVYYCATSFYGFSYHWFDYWGQGTQVTVSS | low polyreactivity
16 | QVQLVESGGGLVQAGGRLRLSCAASGFTFPLYTMGWYRQEPGKERELVAAITWSGGSTYADSLKGRFTISRDNAKNTVYLQMNSLNPEDTEVYYCNRRLQPRGAGHNSWGQGTQVTVSS | high polyreactivity
17 | QVQLVESGGGLVQAGGRLRLSCAASGFTFRYYAMGWYRQAPGKERELVAAISGSGVSTYYADSVKGRFTISRDNAKNTVYLQMNSLKPEDTAVYYCAAGYPGHYYKYDYWGQGTQVTVSS | high polyreactivity
18 | QVQLVESGGGLVQAGGRLRLSCAASGFTFSRNTLGWYRQAPGKERELVARITKRGGTTYYADSVKGRFTISRDNAKNTVYLQMNSLKPEDTAVYYCATVGQPSYRAPDGFNYWGQGTQVTVSS | high polyreactivity
19 | QVQLVESGGGLVQAGGRLRLSCAASGFTFYDNAMGWYRQAPGKERELVAGINSGDSTFYAVSVKGRITISRDNAKNTVYLQMTSLKPEDTGFYYGAADWAWLQWSYDYWGQGTQVTVSS | low polyreactivity
20 | QVQLVESGGGLVQAGGRLRLSCAASGFTFYYYAMGWYRQAPGKEREMVAAISRSGGSTYYADSVKGRFTISRDNAKNTVYLQMNSLKPEDTAVYYCNTLRRTWFQENDYWGQGTQVTVSS | high polyreactivity
21 | QVQLVESGGGLVQAGGRLRLSCAASGFTIRLYTMGWYRQAPGKERELVAAITYSGDSTYYADSVKGRFTISRDNAKNTVYLQMNSLKPVDTAVYYCAARKYYARYYWGQGTQVTVSS | high polyreactivity
22 | QVQLVESGGGLVQAGGRLRLSCAASGFTLVGYAMGWSRQAPGKERELVAAISSGGGSTYYADSVKGRFTISRDNAKNTVYLQMNSLKPEDTAVYYCAVYVDYYGYGYWGQGTQVTVSS | high polyreactivity

Row | Sequence | polyreactivity (PSR sort gate)
23 | QVQLVESGGGLVQAGGRLRLSCAASGGTFRLYTMASYRQAPGKERELVAGISSSSGSTYYADSVKGRFTISRDNAKNTVYLQMNSLKPEDTAVYYCAAYWPRSRYDYWGQGTQVTVSS | high polyreactivity
24 | QVQLVESGGGLVQAGGRLRLSCAASGISFRFNAMGWYRQAPGKEREFVAAITYSGDSTYDADSVMGRFTISRDNAKNTVYLQKNSLKPEDTAVYYCAADYYAIYRRIFYYWGQGTQVTVSS | low polyreactivity
25 | QVQLVESGGGLVQAGGRLRLSCAASGITFFWNAMGWYRQAPGKERELVAAISSGAGTTYADSVKGRFTISRDNAKNTVYLQMNSLKPEDTAVYYCAKRVDAYGWWGRSSGVLSDYWGQGTQVTVSS | low polyreactivity
26 | QVQLVESGGGLVQAGGRLRLSCAASGITFLNYAMGWYRPAPRKERELVAAISWSGGRTYYADSVKGRFTISRDNAKNTVFLQMNSLKPEDNAVYYCAADRGVNSYGYWGQGTQVTVSS | high polyreactivity
27 | QVQLVESGGGLVQAGGRLRLSCAASGITFRSYAMGWYRQAPGKESELVAAIRSGGSTSYADSVKGRFTISRDNAKNTVYLQMNSLKPEDTAVYYCAAGGYVPLPDMTFWKFGYWGQGTQVTVSS | low polyreactivity
28 | QVQLVESGGGLVQAGGRLRLSCAASGITFRYYAMGWYRQAPGKERELVAAITRSGTSTYYADSVKGRFTISRDNAKNTVYLQMNSLKPEDTAVYYCNAEYYHSSTGDDFDYWGQGTQVTVSS | low polyreactivity
29 | QVQLVESGGGLVQAGGRLRLSCAASGITFYHYAMGWYRQAPGKERELVAAITRSGGRTYYAVSVKGRFTISRDTANNTVYVEMYSLKPEVTAVYYSAARWQKTAGRYYYWGQGTQVTGSS | high polyreactivity
30 | QVQLVESGGGLVQAGGRLRLSCAASGITFYRYAMGWYIQAPGKERELVASISSRGSSSYYADSVKGRFTISRDNAKNTVYLQRNSLKPEDTAVYYCAKSRGSRGFVASTYNYWGQGTQVTVSS | high polyreactivity
31 | QVQLVESGGGLVQAGGRLRLSCAASGLIFYDNMGWYRQPPGKERELVAAITWSGGSTYYADSVKGRFTISRDNAKNTVYLQMNSLKPEDTAVSYCNADLDSGYGSYDYWGQGTQVTVSS | low polyreactivity
32 | QVQLVESGGGLVQAGGRLRLSCAASGLIIEWYAMGWFRQAPGKERELVAAITGRGSSTFYADSVKGRFTISRDNAKNTVYLQMNSLKPEDTGVYYCAVATVKQYRSDYWGQGTQVTVSS | low polyreactivity
33 | QVQLVESGGGLVQAGGRLRLSCAASGLIIKLYAMGWYRQAPGKERELVAAITDRGGSTYYADSVKGRFTISRDNAKNTVYLQMNSLKPEDTAVYYCAAPYAGWRDGGDYWGQGTQVTVSS | low polyreactivity
34 | QVQLVESGGGLVQAGGRLRLSCAASGLILSSNALGWYRQAPGKARELVAAITWDGDRTYADSVKGRFTISRDNAKNTVYLQQNSLKPEDTAVYYCAADKQYYWYDWSYEYWGQGTQVTVSW | low polyreactivity
35 | QVQLVESGGGLVQAGGRLRLSCAASGNTFGPYDMGWYRQAPGKERELVAGITSGGSTYYADSVKGRFTISRDNAKITVYLQMNSLKPEDTAVYYCAADYFLWVYWYDYWGQGTQVTVSS | high polyreactivity
36 | QVQLVESGGGLVQAGGRLRLSCAASGNTFYLNAIGWYRQAPGKERELVAAITIRGDSTYYADSVKGRFTISRDNAKNTVYLQMISLKPEDTAVYSCAAPWAWNTGYRVYYGGQGTQVTVSS | high polyreactivity
37 | QVQLVESGGGLVQAGGRLRLSCAASGNTLRYYAMGWYRQAPGKERELVAAISESGGRTYYADSVKGRFTISRDNAKNTVYLQMNSLKPEDTAVYYCAASRWGGTWWYGYNYWGQGTQVTVSS | high polyreactivity
38 | QVQLVESGGGLVQAGGRLRLSCAASGRIFDTYAMGWYRQAPGKERELVASINWSAGSTYYADSVKGRFTISRDNAMNTVYLQMNSLKPEDTAVYYCATYSSYYWQSSYVYWEFDYWGQGTQVTVSS | high polyreactivity
39 | QVQLVESGGGLVQAGGRLRLSCAASGRIFGVNAMGWYRQAPGKERELVAVISSGGSTYYADSVKGRFTISRDNAKNTVYLQMNSLKPEDTAVYYCNAVVGRWFPYNLSDYWGQGTQVTVSS | low polyreactivity
40 | QVQLVESGGGLVQAGGRLRLSCAASGRIFKDNAMGWYRQAPGKERELVAAISSGASTSYADSVKGRFTISRDNAKNTVYLQMNSLKPEDTAVYYCNRGGDLYYPGWLFDYWGQGTQVTVSS | low polyreactivity
41 | QVQLVESGGGLVQAGGRLRLSCAASGRIFKTYAMGWYRQAPGKERELVAAISIRGGSTYYAVSVKGRFTISRDNAKNTVYLQMNSLKPEDTAVYYCNALYGRQIVDYDYWGQGTQVTVSS | high polyreactivity
42 | QVQLVESGGGLVQAGGRLRLSCAASGRIFNKYVMGWYRQAPGKERELVAAISGRGGSTYYADSVKGRFTISRDYEKNTVYLQMNSLKPEDSAVYYCAAEYQGRRMYYWGQGTQVTVSS | high polyreactivity
43 | QVQLVESGGGLVQAGGRLRLSCAASGRIFPKNTMGWNRPAPGKERELVAAINWNGGRTYYADSVKGRYTISRDNAKTTVYLQMNSLKPEDTAVYYCAKDGYWVFDYWGQGTQVTVSS | low polyreactivity
